Assay results as given in article PMC9959508.

Target: human angiotensin-converting enzyme 2 (human) (UniProt Q9BYF1)
Sequence (Q9BYF1 18-805): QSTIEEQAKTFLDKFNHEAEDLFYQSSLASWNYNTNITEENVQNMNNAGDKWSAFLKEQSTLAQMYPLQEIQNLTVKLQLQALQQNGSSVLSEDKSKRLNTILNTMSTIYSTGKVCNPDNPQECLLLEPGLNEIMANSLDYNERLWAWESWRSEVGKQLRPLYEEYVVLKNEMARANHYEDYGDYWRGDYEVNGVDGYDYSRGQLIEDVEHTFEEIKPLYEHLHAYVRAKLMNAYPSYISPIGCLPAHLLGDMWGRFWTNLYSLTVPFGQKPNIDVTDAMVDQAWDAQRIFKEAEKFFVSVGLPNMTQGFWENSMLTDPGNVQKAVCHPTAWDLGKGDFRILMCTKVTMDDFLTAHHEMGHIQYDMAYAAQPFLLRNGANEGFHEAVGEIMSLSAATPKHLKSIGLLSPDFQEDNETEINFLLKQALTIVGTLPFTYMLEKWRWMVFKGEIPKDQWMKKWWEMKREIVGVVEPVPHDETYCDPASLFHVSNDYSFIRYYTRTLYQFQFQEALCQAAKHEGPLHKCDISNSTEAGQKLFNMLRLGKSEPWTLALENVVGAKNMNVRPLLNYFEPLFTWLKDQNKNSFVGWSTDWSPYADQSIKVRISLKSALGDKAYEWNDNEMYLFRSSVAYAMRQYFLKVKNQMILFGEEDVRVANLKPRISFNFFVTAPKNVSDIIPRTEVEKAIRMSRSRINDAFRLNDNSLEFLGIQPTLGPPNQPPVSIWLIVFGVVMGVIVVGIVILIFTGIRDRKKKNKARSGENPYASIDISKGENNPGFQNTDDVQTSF

wild-type human PCSK9, mature (prodomain non-covalently bound to the rest of the protein), sequence (Q8NBP7 31-152): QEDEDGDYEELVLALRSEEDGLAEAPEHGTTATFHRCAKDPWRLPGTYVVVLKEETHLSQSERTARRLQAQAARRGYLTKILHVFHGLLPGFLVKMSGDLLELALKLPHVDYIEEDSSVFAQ
wild-type human PCSK9, mature (prodomain non-covalently bound to the rest of the protein), sequence (Q8NBP7 153-692): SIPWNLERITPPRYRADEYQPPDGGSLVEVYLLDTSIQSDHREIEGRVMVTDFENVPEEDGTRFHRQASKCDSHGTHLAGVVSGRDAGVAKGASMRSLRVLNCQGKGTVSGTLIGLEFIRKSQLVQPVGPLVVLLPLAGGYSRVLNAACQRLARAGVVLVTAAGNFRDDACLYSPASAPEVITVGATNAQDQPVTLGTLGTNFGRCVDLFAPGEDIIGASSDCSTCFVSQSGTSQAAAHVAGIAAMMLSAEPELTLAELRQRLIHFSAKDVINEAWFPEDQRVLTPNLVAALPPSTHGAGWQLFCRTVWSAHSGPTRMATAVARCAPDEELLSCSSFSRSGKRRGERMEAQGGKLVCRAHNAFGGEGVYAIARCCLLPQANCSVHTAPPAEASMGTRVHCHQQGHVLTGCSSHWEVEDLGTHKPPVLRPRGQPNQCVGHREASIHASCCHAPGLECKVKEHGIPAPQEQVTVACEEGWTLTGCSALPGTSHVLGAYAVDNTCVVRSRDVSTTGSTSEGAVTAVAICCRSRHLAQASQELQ
PCSK9 lacking the M2 module of the CHRD, sequence (Q8NBP7 31-152): as the sequence (Q8NBP7 31-152) above
PCSK9 lacking the M2 module of the CHRD, sequence (Q8NBP7 153-692): as the sequence (Q8NBP7 153-692) above
PCSK9 lacking the CHRD, sequence (Q8NBP7 31-152): as the sequence (Q8NBP7 31-152) above
PCSK9 lacking the CHRD, sequence (Q8NBP7 153-455): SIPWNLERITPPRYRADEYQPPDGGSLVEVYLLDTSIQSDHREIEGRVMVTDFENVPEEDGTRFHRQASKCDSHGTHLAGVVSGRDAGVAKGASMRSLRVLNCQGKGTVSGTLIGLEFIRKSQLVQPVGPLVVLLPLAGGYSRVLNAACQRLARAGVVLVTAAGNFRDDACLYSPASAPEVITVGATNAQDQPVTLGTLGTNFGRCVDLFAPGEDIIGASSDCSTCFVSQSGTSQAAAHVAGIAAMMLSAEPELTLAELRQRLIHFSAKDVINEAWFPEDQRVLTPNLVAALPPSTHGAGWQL

| reduction of the level of ACE2 in HeLa cells after 18 h with conditioned medium (Western blot, relative to β-actin) | reduction of the level of ACE2 in HeLa cells after 18 h with PCSK9 conditioned medium (Western blot, relative to β-actin) | Substance |
| --- | --- | --- |
| 50% |  | PCSK9 lacking the CHRD (from UniProt Q8NBP7 31-152; Q8NBP7 153-455) (domain or fragment) |
| 50% |  | PCSK9 lacking the M2 module of the CHRD (from UniProt Q8NBP7 31-152; Q8NBP7 153-692) (natural protein) |
|  | 30% | wild-type human PCSK9, mature (prodomain non-covalently bound to the rest of the protein) (from UniProt Q8NBP7 31-152; Q8NBP7 153-692) (natural protein) |
| 90% |  | PCSK9-D374Y, gain-of-function natural variant (from UniProt Q8NBP7 31-152; Q8NBP7 153-692) (natural protein) |
